Measured values published in IntAct's records for PubMed 19129478.

B1: Neutrophil cytosol factor 1 (Homo sapiens), P14598 (parent)
chain: MGDTFIRHIALLGFEKRFVPSQHYVYMFLVKWQDLSEKVVYRRFTEIYEFHKTLKEMFPIEAGAINPENRIIPHLPAPKWFDGQRAAENRQGTLTEYCSTLMSLPTKISRCPHLLDFFKVRPDDLKLPTDNQTKKPETYLMPKDGKSTATDITGPIILQTYRAIANYEKTSGSEMALSTGDVVEVVEKSESGWWFCQMKAKRGWIPASFLEPLDSPDETEDPEPNYAGEPYVAIKAYTAVEGDEVSLLEGEAVEVIHKLLDGWWVIRKDDVTGYFPSMYLQKSGQDVSQAQRQIKRGAPPRRSSIRNAHSIHQRSRKRLSQDAYRRNSVRFLQQRRRQARPGPQSPGSPLEEERQTQRSKPQPAVPPRPSADLILNRCSESTKRKLASAV

Variants of: B1
Details: with ncf2_human NCF2, P19878
Sequence of ncf2_human NCF2, P19878 (P19878 whole entry): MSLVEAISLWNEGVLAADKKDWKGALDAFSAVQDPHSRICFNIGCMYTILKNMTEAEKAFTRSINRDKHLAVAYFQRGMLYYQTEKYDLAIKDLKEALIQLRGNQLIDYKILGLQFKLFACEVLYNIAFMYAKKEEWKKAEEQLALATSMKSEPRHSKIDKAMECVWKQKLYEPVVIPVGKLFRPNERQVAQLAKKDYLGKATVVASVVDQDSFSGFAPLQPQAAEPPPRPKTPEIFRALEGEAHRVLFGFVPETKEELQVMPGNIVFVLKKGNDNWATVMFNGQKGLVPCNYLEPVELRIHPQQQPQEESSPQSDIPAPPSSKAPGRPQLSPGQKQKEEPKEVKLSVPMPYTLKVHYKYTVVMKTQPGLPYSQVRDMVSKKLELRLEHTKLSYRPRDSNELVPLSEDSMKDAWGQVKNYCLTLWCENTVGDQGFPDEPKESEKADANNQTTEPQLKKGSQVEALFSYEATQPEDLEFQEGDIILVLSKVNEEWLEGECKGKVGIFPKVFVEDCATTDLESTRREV

Variant | effect of a mutation on the interaction
MGDTFIRHIALLGFEKRFVPSQHYVYMFLVKWQDLSEKVVYRRFTEIYEFHKTLKEMFPIEAGAINPENRIIPHLPAPKWFDGQRAAENRQGTLTEYCSTLMSLPTKISRCPHLLDFFKVRPDDLKLPTDNQTKKPETYLMPKDGKSTATDITGPIILQTYRAIANYEKTSGSEMALSTGDVVEVVEKSESGWWFCQMKAKRGWIPASFLEPLDSPDETEDPEPNYAGEPYVAIKAYTAVEGDEVSLLEGEAVEVIHKLLDGWWVIRKDDVTGYFPSMYLQKSGQDVSQAQRQIKRGAPPRRSSIRNAHSIHQRSRKRLSQDAYRRNSVRFLQQRRRQARPGPQSPGSPLEEERQTQRSKPQPAVPPAPSADLILNRCSESTKRKLASAV [R368A] | decreasing interaction
MGDTFIRHIALLGFEKRFVPSQHYVYMFLVKWQDLSEKVVYRRFTEIYEFHKTLKEMFPIEAGAINPENRIIPHLPAPKWFDGQRAAENRQGTLTEYCSTLMSLPTKISRCPHLLDFFKVRPDDLKLPTDNQTKKPETYLMPKDGKSTATDITGPIILQTYRAIANYEKTSGSEMALSTGDVVEVVEKSESGWWFCQMKAKRGWIPASFLEPLDSPDETEDPEPNYAGEPYVAIKAYTAVEGDEVSLLEGEAVEVIHKLLDGWWVIRKDDVTGYFPSMYLQKSGQDVSQAQRQIKRGAPPRRSSIRNAHSIHQRSRKRLSQDAYRRNSVRFLQQRRRQARPGPQSPGSPLEEERQTQRSKPQPAVAPRPSADLILNRCSESTKRKLASAV [P366A] | disrupting interaction

Continued, values first:

effect of a mutation on the interaction | Variant
decreasing interaction | MGDTFIRHIALLGFEKRFVPSQHYVYMFLVKWQDLSEKVVYRRFTEIYEFHKTLKEMFPIEAGAINPENRIIPHLPAPKWFDGQRAAENRQGTLTEYCSTLMSLPTKISRCPHLLDFFKVRPDDLKLPTDNQTKKPETYLMPKDGKSTATDITGPIILQTYRAIANYEKTSGSEMALSTGDVVEVVEKSESGWWFCQMKAKRGWIPASFLEPLDSPDETEDPEPNYAGEPYVAIKAYTAVEGDEVSLLEGEAVEVIHKLLDGWWVIRKDDVTGYFPSMYLQKSGQDVSQAQRQIKRGAPPRRSSIRNAHSIHQRSRKRLSQDAYRRNSVRFLQQRRRQARPGPQSPGSPLEEERQTQRSKPQAAVPPRPSADLILNRCSESTKRKLASAV [P363A]
decreasing interaction | MGDTFIRHIALLGFEKRFVPSQHYVYMFLVKWQDLSEKVVYRRFTEIYEFHKTLKEMFPIEAGAINPENRIIPHLPAPKWFDGQRAAENRQGTLTEYCSTLMSLPTKISRCPHLLDFFKVRPDDLKLPTDNQTKKPETYLMPKDGKSTATDITGPIILQTYRAIANYEKTSGSEMALSTGDVVEVVEKSESGWWFCQMKAKRGWIPASFLEPLDSPDETEDPEPNYAGEPYVAIKAYTAVEGDEVSLLEGEAVEVIHKLLDGWWVIRKDDVTGYFPSMYLQKSGQDVSQAQRQIKRGAPPRRSSIRNAHSIHQRSRKRLSQDAYRRNSVRFLQQRRRQARPGPQSPGSPLEEERQTQRSKPQPAVPPRPSADLILNRCSESTKRELASAV [K385E]
decreasing interaction | MGDTFIRHIALLGFEKRFVPSQHYVYMFLVKWQDLSEKVVYRRFTEIYEFHKTLKEMFPIEAGAINPENRIIPHLPAPKWFDGQRAAENRQGTLTEYCSTLMSLPTKISRCPHLLDFFKVRPDDLKLPTDNQTKKPETYLMPKDGKSTATDITGPIILQTYRAIANYEKTSGSEMALSTGDVVEVVEKSESGWWFCQMKAKRGWIPASFLEPLDSPDETEDPEPNYAGEPYVAIKAYTAVEGDEVSLLEGEAVEVIHKLLDGWWVIRKDDVTGYFPSMYLQKSGQDVSQAQRQIKRGAPPRRSSIRNAHSIHQRSRKRLSQDAYRRNSVRFLQQRRRQARPGPQSPGSPLEEERQTQRSKPQPAVPPRPSADLILNRCSESTERKLASAV [K383E]
